Results reported in US20080009025A1 (published 2008).

Biological target: T1, PIFtide (24 residue synthetic peptide encompassing the PDK1 binding site on PIF) (human)
T1 construct: also called wild type PIF peptide; 24 residue PIF peptide
T1 peptide: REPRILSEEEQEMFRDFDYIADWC
Assay: method not stated

B1: GST-PDK1[I119A] (enzyme, not shown: a dimerising Fc or GST; small tags and cut ends)
chain: MARTTSQLYDAVPIQSSVVLCSCPSPSMVRTQTESSTPPGIPGGSRQGPAMDGTAAEPRPGAGSLQHAQPPPQPRKKRPEDFKFGKILGEGSFSTVVLARELATSREYAIKILEKRHIAKENKVPYVTRERDVMSRLDHPFFVKLYFTFQDDEKLYFGLSYAKNGELLKYIRKIGSFDETCTRFYTAEIVSALEYLHGKGIIHRDLKPENILLNEDMHIQITDFGTAKVLSPESKQARANSFVGTAQYVSPELLTEKSACKSSDLWALGCIIYQLVAGLPPFRAGNEYLIFQKIIKLEYDFPEKFFPKARDLVEKLLVLDATKRLGCEEMEGYGPLKAHPFFESVTWENLHQQTPPKLTAYLPAMSEDDEDCYGNYDNLLSQFGCMQVSSSSSSHSLSASDTGLPQRSGSNIEQYIHDLDSNSFELDLQFSEDEKRLLLEKQAGGNPWHQFVENNLILKMGPVDKRKGLFARRRQLLLTEGPHLYYVDPVNKVLKGEIPWSQELRPEAKNFKTFFVHTPNRTYYLMDPSGNAHKWCRKIQEVWRQRYQSHPDAAVQ
- fold decrease in affinity (against wild type PDK1): ~10 fold
